The results in this text go back to FireProtDB (doi:10.1016/j.jmb.2005.09.091).

To fix the notation:
B1: Guanyl-specific ribonuclease Sa, P05798 (parent)
chain: DVSGTVCLSALPPEATDTLNLIASDGPFPYSQDGVVFQNRESVLPTQSYGYYHEYTVITPGARTRGTRRIITGEATQEDYYTGDHYATFSLIDQTC

The variants in the data set derive from B1. The note with it: Kitasatospora aureofaciens, Thermal, structure 1RGG, whole UniProt chain shown.
Where [1] appears, read: pH 3, 38.6 °C, CD, Glycine 30 mM.
The mark [2] stands for this setting: pH 8.5, 45.9 °C, CD, Mops 30 mM.

As for D79E, where the note is “pH 7, 52.6 °C, CD, Mops 30 mM”, the “ddG of mutation (higher = less stable)” value is 0.3 kcal/mol and the “heat capacity change of unfolding” value is 1.52 kcal/mol/K. In addition, under “pH 7, 52.6 °C, DSC, Mops 30 mM”, the “ddG of mutation (higher = less stable)” value amounted to 0.3 kcal/mol and the “heat capacity change of unfolding” value was 1.52 kcal/mol/K. Further, for the setting “pH 7, CD, Mops 30 mM”, the Tm worked out at 47 °C; the “change of melting temperature, mutant - wild type (higher = more stable)” value (from here on “change of melting temperature, mutant”) was -0.8 °C; the “unfolding enthalpy (van 't Hoff)” value was determined as 90 kcal/mol.
As for D79W, for the setting “pH 7, 52.6 °C, CD, Mops 30 mM”, the “ddG of mutation (higher = less stable)” value was -2.3 kcal/mol and the “heat capacity change of unfolding” value stood at 1.52 kcal/mol/K. For the same variant, where the note is “pH 7, 52.6 °C, DSC, Mops 30 mM”, the “ddG of mutation (higher = less stable)” value is -2.3 kcal/mol and the “heat capacity change of unfolding” value worked out at 1.52 kcal/mol/K. In addition, where the note is “pH 7, CD, Mops 30 mM”, the Tm was determined as 55.4 °C; the “change of melting temperature, mutant” value is 7.6 °C; the “unfolding enthalpy (van 't Hoff)” value came out at 88 kcal/mol.
On to D79H, for which the “ddG of mutation (higher = less stable)” value runs as follows: (pH 7, 52.6 °C, CD, Mops 30 mM) -1.8 kcal/mol; (pH 7, 52.6 °C, DSC, Mops 30 mM) -1.8 kcal/mol. Besides, the “heat capacity change of unfolding” value is, setting by setting: (pH 7, 52.6 °C, CD, Mops 30 mM) 1.52 kcal/mol/K; (pH 7, 52.6 °C, DSC, Mops 30 mM) 1.52 kcal/mol/K.
In the case of D79Y, for the setting “pH 7, 52.6 °C, CD, Mops 30 mM”, the “ddG of mutation (higher = less stable)” value was -2.9 kcal/mol and the “heat capacity change of unfolding” value was determined as 1.52 kcal/mol/K. Also, under “pH 7, CD, Mops 30 mM”, the Tm turned out to be 57.4 °C; the “change of melting temperature, mutant” value was 9.6 °C; the “unfolding enthalpy (van 't Hoff)” value turned out to be 84 kcal/mol.
For D79R, under “pH 7, 52.6 °C, CD, Mops 30 mM”, the “ddG of mutation (higher = less stable)” value was -2.7 kcal/mol and the “heat capacity change of unfolding” value turned out to be 1.52 kcal/mol/K. Under “pH 7, 52.6 °C, DSC, Mops 30 mM”, the “ddG of mutation (higher = less stable)” value is -2.7 kcal/mol and the “heat capacity change of unfolding” value was determined as 1.52 kcal/mol/K. Where the note is “pH 7, CD, Mops 30 mM”, the Tm came out at 56.8 °C; the “change of melting temperature, mutant” value was found to be 9 °C; the “unfolding enthalpy (van 't Hoff)” value was 92 kcal/mol.
Turning to D79K, where the note is “pH 7, 52.6 °C, CD, Mops 30 mM”, the “ddG of mutation (higher = less stable)” value is -2.3 kcal/mol and the “heat capacity change of unfolding” value is 1.52 kcal/mol/K. Under “pH 7, 52.6 °C, DSC, Mops 30 mM”, the “ddG of mutation (higher = less stable)” value is -2.3 kcal/mol and the “heat capacity change of unfolding” value turned out to be 1.52 kcal/mol/K. Besides, for the setting “pH 7, CD, Mops 30 mM”, the Tm came to 55.4 °C; the “change of melting temperature, mutant” value was determined as 7.6 °C; the “unfolding enthalpy (van 't Hoff)” value came out at 88 kcal/mol.
As for D79N, the “ddG of mutation (higher = less stable)” value reads like this: under setting [1], 1.2 kcal/mol; (pH 7, 52.6 °C, CD, Mops 30 mM) -1.8 kcal/mol; (pH 7, 52.6 °C, DSC, Mops 30 mM) -1.8 kcal/mol; under setting [2], -2.3 kcal/mol. Also, the “heat capacity change of unfolding” value reads like this: under setting [1], 1.52 kcal/mol/K; (pH 7, 52.6 °C, CD, Mops 30 mM) 1.52 kcal/mol/K; (pH 7, 52.6 °C, DSC, Mops 30 mM) 1.52 kcal/mol/K; under setting [2], 1.52 kcal/mol/K. Further, the Tm reads like this: (pH 3, CD, Glycine 30 mM) 35.1 °C; (pH 7, CD, Mops 30 mM) 53.4 °C; (pH 8.5, CD, Mops 30 mM) 46.3 °C. The “change of melting temperature, mutant” value is -4.8 °C (pH 3, CD, Glycine 30 mM); 5.5 °C (pH 7, CD, Mops 30 mM); 7.6 °C (pH 8.5, CD, Mops 30 mM). In addition, the “unfolding enthalpy (van 't Hoff)” value was 69 kcal/mol (pH 3, CD, Glycine 30 mM); 96 kcal/mol (pH 7, CD, Mops 30 mM); 65 kcal/mol (pH 8.5, CD, Mops 30 mM).
As for D79A, the “ddG of mutation (higher = less stable)” value was 0.3 kcal/mol under setting [1]; -2.8 kcal/mol (pH 7, 52.6 °C, CD, Mops 30 mM); -2.7 kcal/mol (pH 7, 52.6 °C, DSC, Mops 30 mM). The “heat capacity change of unfolding” value was 1.52 kcal/mol/K under setting [1]; 1.52 kcal/mol/K (pH 7, 52.6 °C, CD, Mops 30 mM); 1.52 kcal/mol/K (pH 7, 52.6 °C, DSC, Mops 30 mM). For the same variant, the Tm (pH 3, CD, Glycine 30 mM) stood at 38.6 °C; the Tm (pH 7, CD, Mops 30 mM) stood at 57 °C; the melting temperature (Tm) (pH 8.5, CD, Mops 30 mM) worked out at 50.4 °C. Moreover, the “change of melting temperature, mutant” value reads like this: (pH 3, CD, Glycine 30 mM) -1.3 °C; (pH 7, CD, Mops 30 mM) 9.2 °C; (pH 8.5, CD, Mops 30 mM) 11.7 °C. The “unfolding enthalpy (van 't Hoff)” value is, setting by setting: (pH 3, CD, Glycine 30 mM) 75 kcal/mol; (pH 7, CD, Mops 30 mM) 94 kcal/mol; (pH 8.5, CD, Mops 30 mM) 95 kcal/mol.
Turning to D79L, where the note is “pH 7, 52.6 °C, DSC, Mops 30 mM”, the “ddG of mutation (higher = less stable)” value was -2.7 kcal/mol and the “heat capacity change of unfolding” value came out at 1.52 kcal/mol/K. For the setting “pH 7, CD, Mops 30 mM”, the Tm amounted to 56.6 °C; the “change of melting temperature, mutant” value was found to be 8.7 °C; the “unfolding enthalpy (van 't Hoff)” value amounted to 75 kcal/mol.
Regarding D79I, under “pH 7, 52.6 °C, CD, Mops 30 mM”, the “ddG of mutation (higher = less stable)” value is -2.9 kcal/mol and the “heat capacity change of unfolding” value came out at 1.52 kcal/mol/K. Under “pH 7, 52.6 °C, DSC, Mops 30 mM”, the “ddG of mutation (higher = less stable)” value is -2.8 kcal/mol and the “heat capacity change of unfolding” value is 1.52 kcal/mol/K. Further, where the note is “pH 7, CD, Mops 30 mM”, the Tm amounted to 57.4 °C; the “change of melting temperature, mutant” value was 9.6 °C; the “unfolding enthalpy (van 't Hoff)” value came out at 89 kcal/mol.
For D79F, the “ddG of mutation (higher = less stable)” value under setting [1] was determined as 0.3 kcal/mol; the “ddG of mutation (higher = less stable)” value (pH 7, 52.6 °C, DSC, Mops 30 mM) is -3 kcal/mol; the “ddG of mutation (higher = less stable)” value under setting [2] is -3.7 kcal/mol. The “heat capacity change of unfolding” value was determined as 1.52 kcal/mol/K under setting [1]; 1.52 kcal/mol/K (pH 7, 52.6 °C, DSC, Mops 30 mM); 1.52 kcal/mol/K under setting [2]. Besides, the Tm amounted to 38.5 °C (pH 3, CD, Glycine 30 mM); 57.8 °C (pH 7, CD, Mops 30 mM); 51.8 °C (pH 8.5, CD, Mops 30 mM). In addition, the “change of melting temperature, mutant” value is -1.4 °C (pH 3, CD, Glycine 30 mM); 10 °C (pH 7, CD, Mops 30 mM); 13.1 °C (pH 8.5, CD, Mops 30 mM). The “unfolding enthalpy (van 't Hoff)” value was 67 kcal/mol (pH 3, CD, Glycine 30 mM); 89 kcal/mol (pH 7, CD, Mops 30 mM); 82 kcal/mol (pH 8.5, CD, Mops 30 mM).
Take Q94K: under setting [1], the “ddG of mutation (higher = less stable)” value is -0.2 kcal/mol and the “heat capacity change of unfolding” value is 1.52 kcal/mol/K. Further, under “pH 3, CD, Glycine 30 mM”, the Tm amounted to 40.8 °C; the “change of melting temperature, mutant” value amounted to 0.9 °C; the “unfolding enthalpy (van 't Hoff)” value came to 64 kcal/mol. Also, under “pH 7, 52.6 °C, CD, Mops 30 mM”, the “ddG of mutation (higher = less stable)” value was -0.3 kcal/mol and the “heat capacity change of unfolding” value came to 1.52 kcal/mol/K. For the setting “pH 7, CD, Mops 30 mM”, the Tm worked out at 48.6 °C; the “change of melting temperature, mutant” value came to 0.8 °C; the “unfolding enthalpy (van 't Hoff)” value came out at 96 kcal/mol. Further, under setting [2], the “ddG of mutation (higher = less stable)” value is -1.1 kcal/mol and the “heat capacity change of unfolding” value was 1.52 kcal/mol/K.
Take D33A: for the setting “pH 7, 52.6 °C, CD, Mops 30 mM”, the “ddG of mutation (higher = less stable)” value came to 6.2 kcal/mol and the “heat capacity change of unfolding” value was 1.52 kcal/mol/K. Further, where the note is “pH 7, 52.6 °C, DSC, Mops 30 mM”, the “ddG of mutation (higher = less stable)” value stood at 6 kcal/mol and the “heat capacity change of unfolding” value was determined as 1.52 kcal/mol/K. Further, where the note is “pH 7, CD, Mops 30 mM”, the Tm came out at 31.8 °C; the “change of melting temperature, mutant” value was -16 °C; the “unfolding enthalpy (van 't Hoff)” value stood at 57 kcal/mol.

Broadly, the Tm is the temperature at which the thermal transition is half complete.
